Test results reported in the domain aggregation screens of Martell et al. (2025).

Assay: soluble fraction after stress (log2 fold change); higher = more stays soluble; pooled small domains, quantitative proteomics
Conditions: stress: pH 4
Procedure, shortened: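 Small protein domains from pooled custom libraries were exposed to pH 4, then quantified with high-throughput quantitative proteomics. The fold change in how much of each domain remains soluble is read as aggregation propensity. It is given as log2, with higher values meaning more stayed soluble.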

Row | Sequence | soluble fraction (log2)
1 | HMSYQADEIKEKLIDILQNQKTGLSGLEISERIGINRITMTKYLQVFAAEGFIKQKNIGNVIIWFIEDGTE | -0.8
2 | HMSYTYPVARLNHIKGKWYVLVSVPAHLRHLFPNQRDLRRSTGTDDESLAKRKQHALAQEIYDLFD | 0.00145
3 | HMTAFEPYLVKVMASVLNIRKGPGTSYAITGQIKDKGTYTIVAESGSWGKLKSGAGWISLSYTSKAGKA | -0.591
4 | HMTAFSEQLIKLRKQKGLSQEQLGAAVGVTRQTVSKWELGDTTPELGKLVQLSDYFQLSIDELVGH | 0.177
5 | HMTAGTTALNKLQQGMSTQQVQAALGTPSDRTVKESGVELWKYYYPYENMLLYLKFRDGHLVSFGTN | -0.244
6 | HMTAKQDLDSIYRHLVATRKSIAENPKMVSSIDDPQALIKMLDYAIQYFYTDKRDEALAVLEKNEEQLNFR | -0.206
7 | HMTALTTEDLERRFYAKTYEGESAQKRLARLEISVFGELRQGRPESDRLHDLNNAVLEKERAALNAGAVG | -0.0471
8 | HMTAMQYVTIKDIADALGISKSSVSRALAGDVHNVSAQTIERVRAKALEMGYLRNNAAVNLR | 0.22
9 | HMTANDKRNALYRKIEVGRRQLPAMDEVAFRQLLAAEFGVESRKDMSVGQLSRLVNILAEKGAVF | 0.0414
10 | HMTANTLDLTYSQFLENVKNGSVNDVTIRGNNVSGNFSDGRKFKTYAVNDPTLVEKLTKMGVNISAAPL | 0.14
11 | HMTAPELSVGDYLEYRGKEYKVESLDMDGFITLTDTALEDAPRLISRVTFLTDEFIRSGEYMVIT | -1.4
12 | HMTAQGDSSDAVQRAITEILRHEDPSHPFSDQQLVIKLRTMDISVSRRTVTKYRKLLHIPSSTHRK | 0.0972
13 | HMTARYQQVEDYIVRRIQDGSWPPGHRLPSEHELVQQFGMSRMTVNRALRDLMQKGRIVRVAGVGSFVAQD | 0.22
14 | HMTATSKKAAWDEVNKIFPTDYERSAAESERAGYAIFRSTAEGVNAWISDLGDRLEINLPDGKTVNIWIEE | -0.624
15 | HMTATVPDSEAGIRLDVYAAALLGVSRAGAQKYIESGAVRVNGLPAPKNRRLESGDVIEAVLPDPE | ≥ 0.43
16 | HMTAVAAEQQAQDAYRQTAANNLNEIQAKYKLPDSESDDFFTFAYERGFTQEDFIDIGLVDKIMGDYV | -0.203
17 | HMTAVNEHELMNQFKLSLGYANGDDPQTKLSTDEKNDFMRFKEWATAMTKDSKMGKDPDYLKKLAVQWTLK | 0.102
18 | HMTAYEGLPVTLIIDGRVFQQNLQKMNLSVEWLRLELKKFGVTNLKEVLFASLDTEGKLFYQLKT | -0.878
19 | HMTDEYYSYIGKTGTTITVLRPAGIAEVEGERLNVVSEGEFIRKGAAILVKEVEGARILVEEVN | 0.349
20 | HMTDFESYTVRVTATNLNIRKGAGTNFHSAGYIKPGVYTIVEEADGKGATRWGKLKSGMGWISLDYAKK | 0.428
21 | HMTDGYAMRLERLNSLEEYVLNKGTVSLEDLAERFGVSINTIRRDLNELISRGQIKKVYGGVSSLHD | -0.245
22 | HMTDIDATSIERAVAKRRHFFLSNIQDLTMKMARRLIEKDLGLAPKHLDAAPFKTRITELVDAVIALGD | -0.484
23 | HMTDIKYLIADGNDIKHWDTASSSYVKVSELPLTSDKFKIYGDDIYHKERTGIIAASPILKIWSPSAE | -0.0343
24 | HMTDKLIAYSVDGILNVITSEAQSVKVYAIDGRLVRILQLGEGRNEVSGLAKGIYIVDNRKVAV | 0.0217
25 | HMTDLNQIGERIKGLRDALGYSPEKMASILEQKVDDYLAYEEGTKDISLSVLQRIEKEFDIDLSTLLFGT | -1.17
26 | HMTDRKRDAIVQAAIGEFREHGFNGTSMDRVAAAADVSKRTVYNHFPSKEELFEAILLLMWE | -1.78

Row | Sequence | soluble fraction (log2)
27 | HMTDSISLTLNGDPRPFRAGATVADLVRDIGLDPAKVAVERNLEIVPRSTLENVHLADGDVLEIVHFV | -0.45
28 | HMTDTIALRSVIAESGLKYKALAEIMGLSPYTLQMKIDNESEFKASEIDALANALGMDMQQRDSIFF | -0.406
29 | HMTDVIADMLTRIRNAASSKHQTVDIPSSNLKKEIAKILLEEGYIRDFIEIDDKKQGIIRITL | -0.617
30 | HMTDYREILRLLSLGLSRTQIADSLNVSRTTVIHTLQRAVAQELDWQTAEGMSDRELVAKLFPV | -0.564
31 | HMTEAVYMPALQNKTLEEAQRIVEQYDLELEYTYEANAQVEEGRILSQTPQMGVLVERGEKVQAVVSLG | -0.43
32 | HMTEDELLAQFEEILDGYVGKPGGLIPALQTAQKLFGYLPKRVLQLISMKLDIPYSEVTGVVSFYSFFTTV | -1.12
33 | HMTEEEEFEKGFEILVNLSHFNRFSVYKEDEYVIVRIADYDFNEYFKVKKSDVGRIAEFLNENIT | -1.86
34 | HMTEELLNQRKETMLALLNDPTYVPMKLKELAMLLNLSRDQRDELREVMESLEQDGKVILTKRGKYKIP | -0.255
35 | HMTEELQDMESRIIEAAKRVFVRKGYEATKMSDIALEVGLGRTALHYYFRTKEMLFDAIFGRLMGV | -0.594
36 | HMTEEPISDGIKKLVEEWENIEGNLIMIFHGIQKHYGYVPRNVAKYVSEAIDVPLTRIYEILTFYNYFTM | -1.43
37 | HMTEEYAVLWRVARQTLKPEAFDVLWMKYREQLSIAEIAGIMNRSETSVKVMLHRARKNLGTALESS | -0.262
38 | HMTEKIEWYKEVLELEPNSKVFFPLARMLAEEQRFDEAVAVLEHGLERHGEFLEARLFFIELLHET | -2.04
39 | HMTEKQYIYSIGDRVNIGTDEFEIVNINEKEVSIADVTFPMLVKQISYEEFDRKVKENPFNDHLII | -1.25
40 | HMTEKSTRSVPQEHEGKRLDVAAALLFPVYSRSELARRIDAGYLLLNGKGSTPKTKVHELDLIELLEV | -1.65
41 | HMTELKKTAVDTWVKDLGTEQALAKLDTLAVVKLRRLAREYKAFGIAGRAISKADKGMLLAEFRAYYEN | 0.171
42 | HMTETSKLTDAKQLLESILSSGEVSYKDIISAAEEYEIGKRTLMSAKALLSIESIKKTDGWYWTLPH | -0.0778
43 | HMTEVPSLSSLKIGDLIFYRNNKGAIAHSAIITSFYNGRPFISQHTFNALNITYVKDWASKMHFIKIW | -0.934
44 | HMTEWDDATVKDAVEYFMSVNGRVPTVTDFKKENGLPSHPVIKQRYKINLHEWLNKNFPTYY | -1.19
45 | HMTFEPVYDENSRILILGTFPSVKSREQQFYYGHPQNRFWKLLAALTGWKVPKTISEKKELLLQNGIA | -0.665
46 | HMTFFDDLLYQAKAAVDNDPSIKPSLHNRAIIEILYQQGVFNMKNAVEHVAELLEISKNTVYLHLRSVKG | -0.976
47 | HMTFGEMLQYTNRLKEILESNAPQSIKDRRLANLMTDLEQAYGIPILRDQEFEKENPFLMQLYRTIS | -1.36
48 | HMTFKDIMENYTISRIENTINSAVVFLDEINAYITIDKTQLPSNLRYDTDSKIMASQIPDDAKIKYFMIYW | -1.61
49 | HMTFPIDINRADTEQLTALPGIGEVLAKRIIAYREENGSFLSTDELKNVEGIGEKRLEAIVDLITIG | -0.935
50 | HMTFSDKIRELRKQKGVSQAVVAEYLGITKQAYSLYETGKREPDFDSLLKLAEYFGTDTDSLLY | -0.379
51 | HMTGEEVLIMLGEKMKLIRNYNGYSQRQIAEILKIERSTYASYETGRNRPDIFAVQRFAKIFNVSVDYIL | -0.877
52 | HMTGELEVTAAGLSPEKLLNLAAKNHITLSNVKRLSYTQLSFRIGPADYNRLKKLLPEGRYKLNVGSS | -0.0957

Row | Sequence | soluble fraction (log2)
53 | HMTGESIPFSKFLSEVDSGRVINVEIQGNNISGLLSDGNKFKTYSPNYPNLVEILSEKEVSIVATPLE | -0.166
54 | HMTGGLTQEQISQLRMLTPQQIEQLRQLQPQQVEMLRQLRPEQVMLLTQLEPQQIMAFMRLEPSVIMQL | -0.657
55 | HMTGGMVTYIIEKGEGFFSLERKFGLSENELIKLNPSLKSGLKSEMQINIPKENYDRYVASS | 0.206
56 | HMTGIESVKPSSDFTVEGNRIVAGDAEVEVYDLAGRKVNNNNLTTGVYIAKIAGSAESVKVFV | 0.22
57 | HMTGIQDVPALETRRVGNTFFFDRATDVQVYDLQGRLLQQARKVTSVSIGHLQQGVYVLTDGRASVKVQ | -0.7
58 | HMTGIQLNDRERAILQHLSDGLTTKAIAERIFLREDTVKWYRKNLLARFEQPIVAALVKWAVLEGLV | 0.409
59 | HMTGIVVVDVVGQVGRPGLVSLPAGSRVADAITAAGGATPEADVSLLNQARLVIDGEQIRVPRPGEVIAA | 0.22
60 | HMTGKVSHGERKSVLVSLAGSMRARGMSIDAVRAGLYADNEKRFDPPLDERDIEDVLNSAKKWGDP | -0.0814
61 | HMTGMDALIGRRVFVSEEILPGDAGGRVAVDGDSWRAISVGTAKPIPAGTEVRIHGYKSLILEVEPI | 0.0974
62 | HMTGQHFDLEDTDGNLVYEIDSTVPLKTFYIYDAMHTEIFRMTKELLHALPTYRFYLYGEPYGVLKKQ | -0.52
63 | HMTGRVKWYDATKGFGFVTSDEGGDVFLPKGALPAGVADLKTGQRIEFGVVDSRKGAQALGVK | -0.22
64 | HMTGSAETRGITLTDEQVTVWAKDGSWANYVYRATDGNWYDGSGRLYYENGGGEWTQAATGEQGS | -1.68
65 | HMTGSALDATIEKLLDLGSKAGSVTEDEIQIVLKNVDVTDAQLSSIYQFLRDRGVEIVSATEDDD | -1.38
66 | HMTGVPYLVRVKITDLHIRSGPGTNYASKGFIAPGAYTIVEESTGQGAALWGKLKSGKGWIALGYTEK | 0.0451
67 | HMTHAISKTYAVTGEQLKNGFTLTHTFANGSTRRVDVYPGSRSGKVIAVRNTTDDTTEWIRIVEG | -0.0152
68 | HMTHSEYVGRHGIAATSLRPAGAATIDGSRVDVVTSGEYIEKGTPIEVMTVNGSTVRVKAVPQIP | 0.08
69 | HMTIDANAIEKMVLDLIGEHPNEWGRYRDGDKKVQGFFVGQIMKATSGQADGKIVNQILSQHAEA | 0.126
70 | HMTIELAEGQHFLQISKSGAPMGNVVRDLIIQTLKITNGNQIKAAKILGISRAKLRYRIEQLGINITGKNI | -0.0446
71 | HMTIERVKIKETPTGWLRVRETPDNNGSEIGRANVGEIYELLGSKGEWYHIVYKGKQGFISTKYAEKVL | -0.124
72 | HMTIGEALLNLRKQLGLNQTEMAANVVSTSFYSKVERNIHDIGTKDLLQILNKHQINATYFFENLN | -0.446
73 | HMTIHVMEIKSLLPIKILDESQHLVQSFSSKNPTSYNYRLIFSDKSKLENIKKTINENKDVESIEIRYA | -0.436
74 | HMTILTSSQRKALISKMIRQGGVESQSHLVKLLAREGVKVTQATASRDLEDLGATRVRDANGEFQYVIP | 0.0156
75 | HMTINQIDPASGRKVGYWIITGEMKPKEGFSPDNKIEEGIYVNSRKSGKWIKYWPNGNVRSEIIYKNGR | -0.0109
76 | HMTITPEVIVNHFKNLDLFFTKNGNYYEFKKKGTENILFKYGIYKQKPNIFVKIQRYPISSLSDLERIPI | -0.159
